The values that follow come from patent US20110118447A1.

Assay [1] concerns the target binding partner (antigen) of C5A (XPA23). Put plainly: Biacore, K-off, fold vs original.
Assay [2] has as its target binding partner of C5A (XPA23). Put plainly: Biacore.
The target in assay [3] is binding partner of C5A (XPA23). Put plainly: Biacore, mutant vs original C5A (XPA23).

B1: C5A (XPA23) VH N104A (antibody, V domains shown)
VH: EVQLLESGGGLVQPGGSLRLSCAASGFTFSKYFMFWVRQAPGKGLEWVSVISPSGGMTRYADSVKGRFTISRDNSKNTLYLQMNSLRAEDTAVYYCARVGYGGASDYWGQGTLVTVSS
VL: DIQMTQSPSSVSASVGDRLTIICRASQDINRWLAWYQQTPGNAPKLLIHSATSLQSGVPSRFSGSGSGTDFTLTINSLQPEDFATYYCQQADSFPLTFGGGTKVEIK
As for B1, the fold difference in affinity vs original in assay [1] and in assay [2] was 1.61 fold each time.

B2: C5A (XPA23) VH Y107V (antibody, V domains shown)
VH: EVQLLESGGGLVQPGGSLRLSCAASGFTFSKYFMFWVRQAPGKGLEWVSVISPSGGMTRYADSVKGRFTISRDNSKNTLYLQMNSLRAEDTAVYYCARVGYGGNSDVWGQGTLVTVSS
VL: DIQMTQSPSSVSASVGDRLTIICRASQDINRWLAWYQQTPGNAPKLLIHSATSLQSGVPSRFSGSGSGTDFTLTINSLQPEDFATYYCQQADSFPLTFGGGTKVEIK
For the molecule B2, the fold difference in affinity vs original in assay [1] and in assay [2] was 0.93 fold each time.

B3: C5A (XPA23) VH S105A (antibody, V domains shown)
VH: EVQLLESGGGLVQPGGSLRLSCAASGFTFSKYFMFWVRQAPGKGLEWVSVISPSGGMTRYADSVKGRFTISRDNSKNTLYLQMNSLRAEDTAVYYCARVGYGGNADYWGQGTLVTVSS
VL: DIQMTQSPSSVSASVGDRLTIICRASQDINRWLAWYQQTPGNAPKLLIHSATSLQSGVPSRFSGSGSGTDFTLTINSLQPEDFATYYCQQADSFPLTFGGGTKVEIK
Regarding B3, the fold difference in affinity vs original in assay [1] and in assay [2] was 0.84 fold each time.

B4: C5A (XPA23) VH N104V (antibody, V domains shown)
VH: EVQLLESGGGLVQPGGSLRLSCAASGFTFSKYFMFWVRQAPGKGLEWVSVISPSGGMTRYADSVKGRFTISRDNSKNTLYLQMNSLRAEDTAVYYCARVGYGGVSDYWGQGTLVTVSS
VL: DIQMTQSPSSVSASVGDRLTIICRASQDINRWLAWYQQTPGNAPKLLIHSATSLQSGVPSRFSGSGSGTDFTLTINSLQPEDFATYYCQQADSFPLTFGGGTKVEIK
For the molecule B4, the fold difference in affinity vs original in assay [1] and in assay [2] was 1.27 fold each time.

B5: C5A (XPA23) VH Y107I (antibody, V domains shown)
VH: EVQLLESGGGLVQPGGSLRLSCAASGFTFSKYFMFWVRQAPGKGLEWVSVISPSGGMTRYADSVKGRFTISRDNSKNTLYLQMNSLRAEDTAVYYCARVGYGGNSDIWGQGTLVTVSS
VL: DIQMTQSPSSVSASVGDRLTIICRASQDINRWLAWYQQTPGNAPKLLIHSATSLQSGVPSRFSGSGSGTDFTLTINSLQPEDFATYYCQQADSFPLTFGGGTKVEIK
In the case of B5, the fold difference in affinity vs original in assay [1] and in assay [2] was 0.96 fold throughout.

B6: C5A (XPA23) VH N104L (antibody, V domains shown)
VH: EVQLLESGGGLVQPGGSLRLSCAASGFTFSKYFMFWVRQAPGKGLEWVSVISPSGGMTRYADSVKGRFTISRDNSKNTLYLQMNSLRAEDTAVYYCARVGYGGLSDYWGQGTLVTVSS
VL: DIQMTQSPSSVSASVGDRLTIICRASQDINRWLAWYQQTPGNAPKLLIHSATSLQSGVPSRFSGSGSGTDFTLTINSLQPEDFATYYCQQADSFPLTFGGGTKVEIK
For B6, the fold difference in affinity vs original in assay [1] and in assay [2] was 1.19 fold throughout.

B7: C5A (XPA23) VH Y107A (antibody, V domains shown)
VH: EVQLLESGGGLVQPGGSLRLSCAASGFTFSKYFMFWVRQAPGKGLEWVSVISPSGGMTRYADSVKGRFTISRDNSKNTLYLQMNSLRAEDTAVYYCARVGYGGNSDAWGQGTLVTVSS
VL: DIQMTQSPSSVSASVGDRLTIICRASQDINRWLAWYQQTPGNAPKLLIHSATSLQSGVPSRFSGSGSGTDFTLTINSLQPEDFATYYCQQADSFPLTFGGGTKVEIK
In the case of B7, the fold difference in affinity vs original in assay [1] and in assay [2] was 0.83 fold in each case.

B8: C5A (XPA23) VH Y107L (antibody, V domains shown)
VH: EVQLLESGGGLVQPGGSLRLSCAASGFTFSKYFMFWVRQAPGKGLEWVSVISPSGGMTRYADSVKGRFTISRDNSKNTLYLQMNSLRAEDTAVYYCARVGYGGNSDLWGQGTLVTVSS
VL: DIQMTQSPSSVSASVGDRLTIICRASQDINRWLAWYQQTPGNAPKLLIHSATSLQSGVPSRFSGSGSGTDFTLTINSLQPEDFATYYCQQADSFPLTFGGGTKVEIK
As for B8, the fold difference in affinity vs original in assay [1] and in assay [2] was 0.86 fold each time.

B9: C5A (XPA23) VH Y107F (antibody, V domains shown)
VH: EVQLLESGGGLVQPGGSLRLSCAASGFTFSKYFMFWVRQAPGKGLEWVSVISPSGGMTRYADSVKGRFTISRDNSKNTLYLQMNSLRAEDTAVYYCARVGYGGNSDFWGQGTLVTVSS
VL: DIQMTQSPSSVSASVGDRLTIICRASQDINRWLAWYQQTPGNAPKLLIHSATSLQSGVPSRFSGSGSGTDFTLTINSLQPEDFATYYCQQADSFPLTFGGGTKVEIK
B9: the fold difference in affinity vs original in assay [1] came out at 0.9 fold. Moreover, the fold affinity vs original in assay [2] is 0.9 fold.

B10: C5A (XPA23) VH S105P (antibody, V domains shown)
VH: EVQLLESGGGLVQPGGSLRLSCAASGFTFSKYFMFWVRQAPGKGLEWVSVISPSGGMTRYADSVKGRFTISRDNSKNTLYLQMNSLRAEDTAVYYCARVGYGGNPDYWGQGTLVTVSS
VL: DIQMTQSPSSVSASVGDRLTIICRASQDINRWLAWYQQTPGNAPKLLIHSATSLQSGVPSRFSGSGSGTDFTLTINSLQPEDFATYYCQQADSFPLTFGGGTKVEIK
With B10, the fold difference in affinity vs original in assay [1] and in assay [2] was 1.41 fold each time.

B11: C5A (XPA23) VH S105V (antibody, V domains shown)
VH: EVQLLESGGGLVQPGGSLRLSCAASGFTFSKYFMFWVRQAPGKGLEWVSVISPSGGMTRYADSVKGRFTISRDNSKNTLYLQMNSLRAEDTAVYYCARVGYGGNVDYWGQGTLVTVSS
VL: DIQMTQSPSSVSASVGDRLTIICRASQDINRWLAWYQQTPGNAPKLLIHSATSLQSGVPSRFSGSGSGTDFTLTINSLQPEDFATYYCQQADSFPLTFGGGTKVEIK
For B11, the fold difference in affinity vs original in assay [1] and in assay [2] was 0.08 fold in each case.

B12: C5A (XPA23) VH Y107W (antibody, V domains shown)
VH: EVQLLESGGGLVQPGGSLRLSCAASGFTFSKYFMFWVRQAPGKGLEWVSVISPSGGMTRYADSVKGRFTISRDNSKNTLYLQMNSLRAEDTAVYYCARVGYGGNSDWWGQGTLVTVSS
VL: DIQMTQSPSSVSASVGDRLTIICRASQDINRWLAWYQQTPGNAPKLLIHSATSLQSGVPSRFSGSGSGTDFTLTINSLQPEDFATYYCQQADSFPLTFGGGTKVEIK
On to B12, for which the fold difference in affinity vs original in assay [1] came to 0.89 fold. Moreover, the fold affinity vs original in assay [2] was found to be 0.89 fold.

B13: C5A (XPA23) VH S105G (antibody, V domains shown)
VH: EVQLLESGGGLVQPGGSLRLSCAASGFTFSKYFMFWVRQAPGKGLEWVSVISPSGGMTRYADSVKGRFTISRDNSKNTLYLQMNSLRAEDTAVYYCARVGYGGNGDYWGQGTLVTVSS
VL: DIQMTQSPSSVSASVGDRLTIICRASQDINRWLAWYQQTPGNAPKLLIHSATSLQSGVPSRFSGSGSGTDFTLTINSLQPEDFATYYCQQADSFPLTFGGGTKVEIK
In the case of B13, the fold difference in affinity vs original in assay [1] and in assay [2] was 0.12 fold throughout.

B14: C5A (XPA23) VH Y107P (antibody, V domains shown)
VH: EVQLLESGGGLVQPGGSLRLSCAASGFTFSKYFMFWVRQAPGKGLEWVSVISPSGGMTRYADSVKGRFTISRDNSKNTLYLQMNSLRAEDTAVYYCARVGYGGNSDPWGQGTLVTVSS
VL: DIQMTQSPSSVSASVGDRLTIICRASQDINRWLAWYQQTPGNAPKLLIHSATSLQSGVPSRFSGSGSGTDFTLTINSLQPEDFATYYCQQADSFPLTFGGGTKVEIK
Consider B14, for which the fold difference in affinity vs original in assay [1] and in assay [2] was 0.04 fold throughout.

B15: C5A (XPA23) VH S105I (antibody, V domains shown)
VH: EVQLLESGGGLVQPGGSLRLSCAASGFTFSKYFMFWVRQAPGKGLEWVSVISPSGGMTRYADSVKGRFTISRDNSKNTLYLQMNSLRAEDTAVYYCARVGYGGNIDYWGQGTLVTVSS
VL: DIQMTQSPSSVSASVGDRLTIICRASQDINRWLAWYQQTPGNAPKLLIHSATSLQSGVPSRFSGSGSGTDFTLTINSLQPEDFATYYCQQADSFPLTFGGGTKVEIK
With B15, the fold difference in affinity vs original in assay [1] and in assay [2] was 0.07 fold in each case.

B16: C5A (XPA23) VH S105F (antibody, V domains shown)
VH: EVQLLESGGGLVQPGGSLRLSCAASGFTFSKYFMFWVRQAPGKGLEWVSVISPSGGMTRYADSVKGRFTISRDNSKNTLYLQMNSLRAEDTAVYYCARVGYGGNFDYWGQGTLVTVSS
VL: DIQMTQSPSSVSASVGDRLTIICRASQDINRWLAWYQQTPGNAPKLLIHSATSLQSGVPSRFSGSGSGTDFTLTINSLQPEDFATYYCQQADSFPLTFGGGTKVEIK
As for B16, the fold difference in affinity vs original in assay [1] was 1.25 fold. In addition, the fold affinity vs original in assay [2] is 1.25 fold.

B17: C5A (XPA23) VH D106G (antibody, V domains shown)
VH: EVQLLESGGGLVQPGGSLRLSCAASGFTFSKYFMFWVRQAPGKGLEWVSVISPSGGMTRYADSVKGRFTISRDNSKNTLYLQMNSLRAEDTAVYYCARVGYGGNSGYWGQGTLVTVSS
VL: DIQMTQSPSSVSASVGDRLTIICRASQDINRWLAWYQQTPGNAPKLLIHSATSLQSGVPSRFSGSGSGTDFTLTINSLQPEDFATYYCQQADSFPLTFGGGTKVEIK
With B17, the fold difference in affinity vs original in assay [1] and in assay [2] was 0.03 fold each time.

B18: C5A (XPA23) VH Y107G (antibody, V domains shown)
VH: EVQLLESGGGLVQPGGSLRLSCAASGFTFSKYFMFWVRQAPGKGLEWVSVISPSGGMTRYADSVKGRFTISRDNSKNTLYLQMNSLRAEDTAVYYCARVGYGGNSDGWGQGTLVTVSS
VL: DIQMTQSPSSVSASVGDRLTIICRASQDINRWLAWYQQTPGNAPKLLIHSATSLQSGVPSRFSGSGSGTDFTLTINSLQPEDFATYYCQQADSFPLTFGGGTKVEIK
B18: the fold difference in affinity vs original in assay [1] and in assay [2] was 0.1 fold each time.

B19: C5A (XPA23) light chain variable region S53T (antibody, V domains shown)
VH: EVQLLESGGGLVQPGGSLRLSCAASGFTFSKYFMFWVRQAPGKGLEWVSVISPSGGMTRYADSVKGRFTISRDNSKNTLYLQMNSLRAEDTAVYYCARVGYGGNSDYWGQGTLVTVSS
VL: DIQMTQSPSSVSASVGDRLTIICRASQDINRWLAWYQQTPGNAPKLLIHSATTLQSGVPSRFSGSGSGTDFTLTINSLQPEDFATYYCQQADSFPLTFGGGTKVEIK
On to B19, for which, in assay [3], the fold difference in affinity in comparison to original worked out at 0.95 fold.
